These results are taken from the RNAGym collection of RNA variant scans (doi:10.7554/elife.80360).

Sequences and labels used below:
B1: Twister Ribozyme (parent)
chain: AACACUGCCAAUGCCGGUCCCAAGCCCGGAUAAAAGUGGAGGGGGCGG

The variants in the series derive from B1. In words: self-cleavage, relative activity (ratio to wild type); higher = more cleavage; co-transcriptional.
AACGCUGCCAAUGCCGGUCCCAAGCACGGAUAAAAGUGGAGGGGGCGG [A4G C26A]: the self-cleavage worked out at 0.293.
The value for AACUCUGCCAAUGCCGGUCCCAAGCCCGGAUAUAAGUGGAGGGGGCGG [A4U A33U] was 0.0597; that for AACAAUGCCAAUGCCGGUCCCAAGCCCGGAUAAAAAUGGAGGGGGCGG [C5A G36A] was 0.583; that for AACACUGCCAAUGCCGGUCCCAAGACCGGAUAAAAGUGGAGGGGGCUG [C25A G47U] was 0.0657.
Take AACACUGCCAAUGCAGGUCCCAAGCCCGGAGAAAAGUGGAGGGGGCGG [C15A U31G]: the self-cleavage turned out to be 0.76.
With AACACUGCCAAUAUCGGUCCCAAGCCCGGAUAAAAGUGGAGGGGGCGG [G13A C14U], the self-cleavage came to 0.8.
Then AACACUGCCAAUGCCGGUCCCAAACCCGGAAAAAAGUGGAGGGGGCGG [G24A U31A], with 0.106; and AACACUGCCAAUGCCGGUCCCAAUCCCGGAUAAUAGUGGAGGGGGCGG [G24U A34U], with 0.116; and AUCACUGCCAAUGCCGGUCCCAAGCCCGGAUGAAAGUGGAGGGGGCGG [A2U A32G], with 0.605.
For AGCACUGCCAAUGCCGGUCCGAAGCCCGGAUAAAAGUGGAGGGGGCGG [A2G C21G], the self-cleavage turned out to be 0.215.
The value for AACACUGCCUAUGCCGGUCCCAAGCCCGGAUAAUAGUGGAGGGGGCGG [A10U A34U] was 0.818; that for AACACUGCCAACGCCGGUCCCAGGCCCGGAUAAAAGUGGAGGGGGCGG [U12C A23G] was 0.486; that for AACACUGCCAAUGCCGGUCCCAAGCCCACAUAAAAGUGGAGGGGGCGG [G28A G29C] was 0.71.
Then AACACUGCCAAGGCCGGUCCCAAGCCCGGAUAAAACUGGAGGGGGCGG [U12G G36C], with 0.475; and AACACUACCAAUGCCGGUCCCAAGCCCGGACAAAAGUGGAGGGGGCGG [G7A U31C], with 0.451; and AACACUGACAAUGCCGGUCCCAAGCUCGGAUAAAAGUGGAGGGGGCGG [C8A C26U], with 0.098.
As to ACCACUGCCAAUACCGGUCCCAAGCCCGGAUAAAAGUGGAGGGGGCGG [A2C G13A], the self-cleavage amounted to 0.0468.
The value for AACACUGCCAAUGCCGGUCCCAAGCCCGGAUACAAGGGGAGGGGGCGG [A33C U37G] was 0.626.
Then AACACUGCCUAUGCCGGUCCCAAGCCCGGAUAAAAGUGGCGGGGGCGG [A10U A40C], with 0.305.
As for ACCACUGCCAAUGCAGGUCCCAAGCCCGGAUAAAAGUGGAGGGGGCGG [A2C C15A], the self-cleavage is 0.051.
The value for AACACUGCUAAUGCCGGUCCCAAGCCCGUAUAAAAGUGGAGGGGGCGG [C9U G29U] was 0.606; that for AACACUGCCAAUGCCGGUCCCAAACCCGGAUAAAAGUGGAGGGGGGGG [G24A C46G] was 0.0598; that for AACACGGCCAAUGCCGGUCCCAAGCCCGGAUAGAAGUGGAGGGGGCGG [U6G A33G] was 0.199.
Then AACCCUGCCAAUGCCGGUCCCAAGCCCGGAUAAAAGUGGAGGGAGCGG [A4C G44A], with 0.165; and AACACUGCCAAUGCCGGUCCCAUGCCCGGAUAAAAGUGGAGGGGGCAG [A23U G47A], with 0.245; and AACACUGCAAAUGCCGGUCCCAAGCCCGGAUAAAAGUGGAGGGGGCGC [C9A G48C], with 0.541.
The value for AACACUGCCAAUGCCGAUCUCAAGCCCGGAUAAAAGUGGAGGGGGCGG [G17A C20U] was 0.373.
As for AACAGUGCCAAUGCCGGUCCCAAGCCCGUAUAAAAGUGGAGGGGGCGG [C5G G29U], the self-cleavage was found to be 0.584.
Then AACACUGCCAAUGCCCGUCCCAAGCCCGGAUAAAAGUGGAGGGGGGGG [G16C C46G], with 0.262.
Then AACACUGCCAAUGCCGUUCCCAAGCCCGGAUAAGAGUGGAGGGGGCGG [G17U A34G], with 0.182.
The value for AACACUGCCAAUGCCGGUCCCAAGCCCGGAUCAAAGUGGAGGGGACGG [A32C G45A] was 0.95.
As for AACACUGCCAAUGCCGGUCCCAAGCCCGGAUAAAAGUGGCGGAGGCGG [A40C G43A], the self-cleavage is 0.138.
Then AACACUGCCAAUGCCGGUCCCAAGCCCGGAAAAAACUGGAGGGGGCGG [U31A G36C], with 0.388; and AAGACUGCCAAUGCCGGUCCCAAGCCCGGAUAAAAGUGGAGAGGGCGG [C3G G42A], with 0.111.
Then AACACUGCCAGGGCCGGUCCCAAGCCCGGAUAAAAGUGGAGGGGGCGG [A11G U12G], with 0.743; and UACACUGCCAAUGCCGGUCCCAAGCCCGGAUAAAAGUGGACGGGGCGG [A1U G41C], with 0.0395; and AACACAGCCAAUGCCGAUCCCAAGCCCGGAUAAAAGUGGAGGGGGCGG [U6A G17A], with 0.181.
Then AACACUGCCAAUGCGGGUCCCAAGCCCGGAUAAAAGCGGAGGGGGCGG [C15G U37C], with 0.114; and CACACUGCCAAUGCCGGUCCCAAGCCCGUAUAAAAGUGGAGGGGGCGG [A1C G29U], with 0.215; and AACACUGCCAAAGCCGGUCCCAAGCCCGGAUAAAGGUGGAGGGGGCGG [U12A A35G], with 1.06.
Regarding AAUACUGCCAAUGCCGGUCCCCAGCCCGGAUAAAAGUGGAGGGGGCGG [C3U A22C], the self-cleavage was found to be 0.549.
Then AACACUGCCAAUACCGGUCCCAAGCCCGGAUAAAAGUGGAGGGGCCGG [G13A G45C], with 0.229.
The value for AACACUGCCAAUGCCGGUGCCAUGCCCGGAUAAAAGUGGAGGGGGCGG [C19G A23U] was 0.11; that for AACACUGCCAAUGCCGGUCCCUAGCCCGGAUAAAAGUCGAGGGGGCGG [A22U G38C] was 0.779; that for AACACUGCCAAUGCGGGUCCCCAGCCCGGAUAAAAGUGGAGGGGGCGG [C15G A22C] was 0.0849.
The value for AACACUGCCAAUGCCGGUCCCAAGCCCGGAUAAAAGUGGACUGGGCGG [G41C G42U] was 0.167.
As for AACCCUGCCAAUGCCGGCCCCAAGCCCGGAUAAAAGUGGAGGGGGCGG [A4C U18C], the self-cleavage was 0.0605.
Then AACACUGCCAAUGCCGGUCCCAAGCCCGCAUAAAAGUAGAGGGGGCGG [G29C G38A], with 0.796; and AACACUGCCAAUGCCGGGCCCAAGCCCGGAUAAAUGUGGAGGGGGCGG [U18G A35U], with 0.0933; and AACGCUGCCAAUGCCGGGCCCAAGCCCGGAUAAAAGUGGAGGGGGCGG [A4G U18G], with 0.0583.
Then AGCACUGCCAAUGCCGGUCCCAAGCCCGGAUAAAAGUGGAGGGGUCGG [A2G G45U], with 0.159; and AACACUGGCAAAGCCGGUCCCAAGCCCGGAUAAAAGUGGAGGGGGCGG [C8G U12A], with 0.609.
The value for CACAAUGCCAAUGCCGGUCCCAAGCCCGGAUAAAAGUGGAGGGGGCGG [A1C C5A] was 0.198.
For the variant AACACUGCCAAUGCCGGUCCCAAGCCGGGAUAAAAGUGGAGGGGUCGG [C27G G45U], the self-cleavage is 0.0905.
